Experiments:
[1] = system: T1, VEGF-121 (Homo sapiens), P15692-9; assay: filter; settings: Nap-dU at all P positions; 2'-OMe at C6,G9,C12,G15,A17,G18,Nap22,G28,G29; 0.035 nM in Table 14
T1 sequence: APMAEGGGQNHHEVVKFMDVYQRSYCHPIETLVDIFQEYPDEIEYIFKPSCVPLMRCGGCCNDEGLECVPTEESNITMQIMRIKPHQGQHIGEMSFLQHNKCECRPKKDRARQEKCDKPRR

PDGF-BB (Homo sapiens) = PDGF-BB (Homo sapiens) (UniProt P01127); assay: filter; settings: Bn-dU
Chain of UniProt P01127 (P01127 82-190): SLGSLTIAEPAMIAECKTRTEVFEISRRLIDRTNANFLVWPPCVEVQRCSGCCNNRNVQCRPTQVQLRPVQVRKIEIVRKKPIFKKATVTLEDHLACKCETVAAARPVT

“CCGTTCAAGTGCTTGTAGGATTTAAATGG [4867-31_192]” showed a Kd [1] of 0.023 nM.
With “TACGACTACGTTACACGCGTTTATAGCG [4149-8_64]” the Kd (PDGF-BB (Homo sapiens); C3 at position 1) was < 10 nM.
For “TTACACTACGTTACACGCGTTTATAGCG [4149-8_68]”, the Kd (PDGF-BB (Homo sapiens); C3 at position 5) was < 10 nM.
In the case of “TTACGACACGTTACACGCGTTTATAGCG [4149-8_71]”, the Kd (PDGF-BB (Homo sapiens); C3 at position 8) is reported as < 10 nM.
With “TTACGACTACGTTAACGCGTTTATAGCG [4149-8_78]” the Kd (PDGF-BB (Homo sapiens); C3 at position 15) was < 10 nM.
In the case of “TTACGACTACGTTACACGCGTTTATAGC [4149-8_92]”, the Kd (PDGF-BB (Homo sapiens); C3 at position 29) is reported as < 10 nM.
With “TTACGACTACGTTACACGCGTTTATAGCG [4149-8_44]” the Kd (PDGF-BB (Homo sapiens); 2'-OMe at position 3) was < 10 nM.
With “TTACGACTACGTTACACGCGTTTATAGCG [4149-8_45]” the Kd (PDGF-BB (Homo sapiens); 2'-OMe at position 4) was < 10 nM.
“TTACGACTACGTTACACGCGTTTATAGCG [4149-8_46]” was tested, and the Kd (PDGF-BB (Homo sapiens); 2'-OMe at position 5) was < 10 nM.
In the case of “TTACGACTACGTTACACGCGTTTATAGCG [4149-8_47]”, the Kd (PDGF-BB (Homo sapiens); 2'-OMe at position 6) is reported as < 10 nM.
With “TTACGACTACGTTACACGCGTTTATAGCG [4149-8_48]” the Kd (PDGF-BB (Homo sapiens); 2'-OMe at position 7) was < 10 nM.
For “TTACGACTACGTTACACGCGTTTATAGCG [4149-8_49]”, the Kd (PDGF-BB (Homo sapiens); 2'-OMe at position 9) was < 10 nM.
“TTACGACTACGTTACACGCGTTTATAGCG [4149-8_50]” was tested, and the Kd (PDGF-BB (Homo sapiens); 2'-OMe at position 10) was < 10 nM.
With “TTACGACTACGTTACACGCGTTTATAGCG [4149-8_51]” the Kd (PDGF-BB (Homo sapiens); 2'-OMe at position 11) was < 10 nM.
“TTACGACTACGTTACACGCGTTTATAGCG [4149-8_52]” was tested, and the Kd (PDGF-BB (Homo sapiens); 2'-OMe at position 14) was < 10 nM.
With “TTACGACTACGTTACACGCGTTTATAGCG [4149-8_53]” the Kd (PDGF-BB (Homo sapiens); 2'-OMe at position 15) was < 10 nM.
In the case of “TTACGACTACGTTACACGCGTTTATAGCG [4149-8_54]”, the Kd (PDGF-BB (Homo sapiens); 2'-OMe at position 16) is reported as < 10 nM.
For “TTACGACTACGTTACACGCGTTTATAGCG [4149-8_55]”, the Kd (PDGF-BB (Homo sapiens); 2'-OMe at position 17) was < 10 nM.
For “TTACGACTACGTTACACGCGTTTATAGCG [4149-8_56]”, the Kd (PDGF-BB (Homo sapiens); 2'-OMe at position 18) was < 10 nM.
With “TTACGACTACGTTACACGCGTTTATAGCG [4149-8_57]” the Kd (PDGF-BB (Homo sapiens); 2'-OMe at position 19) was < 10 nM.
“TTACGACTACGTTACACGCGTTTATAGCG [4149-8_58]” was tested, and the Kd (PDGF-BB (Homo sapiens); 2'-OMe at position 20) was < 10 nM.
“TTACGACTACGTTACACGCGTTTATAGCG [4149-8_59]” was tested, and the Kd (PDGF-BB (Homo sapiens); 2'-OMe at position 24) was < 10 nM.
With “TTACGACTACGTTACACGCGTTTATAGCG [4149-8_60]” the Kd (PDGF-BB (Homo sapiens); 2'-OMe at position 26) was < 10 nM.
With “TTACGACTACGTTACACGCGTTTATAGCG [4149-8_61]” the Kd (PDGF-BB (Homo sapiens); 2'-OMe at position 27) was < 10 nM.
In the case of “TTACGACTACGTTACACGCGTTTATAGCG [4149-8_62]”, the Kd (PDGF-BB (Homo sapiens); 2'-OMe at position 28) is reported as < 10 nM.
“TTACGACTACGTTACACGCGTTTATAGCG [4149-8_63]” was tested, and the Kd (PDGF-BB (Homo sapiens); 2'-OMe at position 29) was < 10 nM.
In the case of “TTACGACTACGTTACACGCGTTTATAGG [4149-8_91]”, the Kd (PDGF-BB (Homo sapiens); C3 at position 28) is reported as < 10 nM.
“TTACGACTACGTTACACGCGTTTTAGCG [4149-8_87]” was tested, and the Kd (PDGF-BB (Homo sapiens); C3 at position 24) was < 10 nM.
For “TTACGACTACGTTACAGCGTTTATAGCG [4149-8_80]”, the Kd (PDGF-BB (Homo sapiens); C3 at position 17) was < 10 nM.
With “TTACGACTACGTTACCGCGTTTATAGCG [4149-8_79]” the Kd (PDGF-BB (Homo sapiens); C3 at position 16) was < 10 nM.
In the case of “TTACGACTAGTTACACGCGTTTATAGCG [4149-8_73]”, the Kd (PDGF-BB (Homo sapiens); C3 at position 10) is reported as < 10 nM.
“TTACGACTCGTTACACGCGTTTATAGCG [4149-8_72]” was tested, and the Kd (PDGF-BB (Homo sapiens); C3 at position 9) was < 10 nM.
For “TTACGATACGTTACACGCGTTTATAGCG [4149-8_70]”, the Kd (PDGF-BB (Homo sapiens); C3 at position 7) was < 10 nM.
In the case of “TTACGCTACGTTACACGCGTTTATAGCG [4149-8_69]”, the Kd (PDGF-BB (Homo sapiens); C3 at position 6) is reported as < 10 nM.
TTACGTTACCGCGTTTATAGCG [4149-8_426] was tested, and the Kd (PDGF-BB (Homo sapiens); MBn-dU, Heg, C3, 2'-OMe) was > 10 nM.
In the case of TTACGTTACCGTTTATAG [4149-8_405], the Kd (PDGF-BB (Homo sapiens); Heg, C3) is reported as > 10 nM.
For “TTAGACTACGTTACACGCGTTTATAGCG [4149-8_67]”, the Kd (PDGF-BB (Homo sapiens); C3 at position 4) was < 10 nM.

Reference: patent US20170260531
